Bridge positions count the residues as written; N and C are the ends. Square brackets hold non-standard residues; d marks the D form. S5 = C=CCCC[C@](C)(N)C(=O)O; Nle = CCCC[C@H](N)C(=O)O
Biological target: T1, His6-tagged p300 (AA 323-423) (UniProt Q09472 323-423)
T1 construct: range 323-423; also called p300-CH; not shown: His6 tag
Experiment: TR-FRET HIF1a/p300 displacement; grade = IC50 >700 nM
Experimental: The ability of peptides to displace HIF1α c-terminal trans-activation domain from p300-CH was measured by a TR FRET assay. […] The complex was diluted to 300 nM final in complete assay media and competitor peptides were added. The complete assay media contained 150 mM NaCl (Sigma +S5150 or equivalent), 20 mM HEPES pH 7.4 (Boston Bioproducts, Ashland, Mass.; #BB-2076), 7.5 mM CHAPS (Thermo #28300 or equivalent), and 1 mM DTT. Protein and peptide were incubated at room temperature for 1 hour before the addition of anti-Flag-K and anti-6×HIS-D2 (CisBio, Bedford Mass.) HTRF reconstitution buffer (50 mM Phosphate pH 7, 0.8 Potassium Flouride, BSA 0.2%)¹ to a final concentration of 0.5 μM and 4 nM respectively. The reaction continued for an additional two hours at room temperature. The reaction was read on a TECAN F500 plate reader with settings recommended by CisBio. The ratio of donor to acceptor fluorescence was calculated. The resulting data was analyzed with Graphpad Prism 5.0. IC50 values were calculated for both proteins using the One Site Fit-LogIC50 equation and presented in the column “IC₅₀ (nM) (HIF1α_p300 Displacement+CHAPS)” of Table 6. ¹ Cisbio USA, Bedford, Mass.; 61HISDLB (lot 007A), 61FG2KLB (024A), HTRF Buffer (62RB3RDF)

T1 sequence (Q09472 323-423 limits assumed): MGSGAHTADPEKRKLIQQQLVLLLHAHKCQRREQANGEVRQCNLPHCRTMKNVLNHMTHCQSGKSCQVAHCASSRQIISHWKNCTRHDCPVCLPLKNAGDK

Binder	IC50 [nM]
Ac-FIDEEVLA[S5]LVI[S5][Nle]ALDRI-NH2 (staple 9-13; SMILES CCCC[C@H](NC(=O)[C@]1(C)CCCC=CCCC[C@](C)(NC(=O)[C@H](C)NC(=O)[C@H](CC(C)C)NC(=O)[C@@H](NC(=O)[C@H](CCC(=O)O)NC(=O)[C@H](CCC(=O)O)NC(=O)[C@H](CC(=O)O)NC(=O)[C@@H](NC(=O)[C@H](Cc2ccccc2)NC(C)=O)[C@@H](C)CC)C(C)C)C(=O)N[C@@H](CC(C)C)C(=O)N[C@@H](C(C)C)C(=O)N[C@@H]([C@@H](C)CC)C(=O)N1)C(=O)N[C@@H](C)C(=O)N[C@@H](CC(C)C)C(=O)N[C@@H](CC(=O)O)C(=O)N[C@@H](CCCNC(=N)N)C(=O)N[C@H](C(N)=O)[C@@H](C)CC) [SP-16]	> 700
FIDEEVLLALVIALALARI (not fully specified; Ac-FIDEEVL-Nle-$-LVI-$-Nle-ALARI-NH2) [SP-23]	> 700
Ac-FEDEEVL[Nle][S5]LVI[S5][Nle]ALDRI-NH2 (staple 9-13; SMILES CCCC[C@H](NC(=O)[C@H](CC(C)C)NC(=O)[C@@H](NC(=O)[C@H](CCC(=O)O)NC(=O)[C@H](CCC(=O)O)NC(=O)[C@H](CC(=O)O)NC(=O)[C@H](CCC(=O)O)NC(=O)[C@H](Cc1ccccc1)NC(C)=O)C(C)C)C(=O)N[C@@]1(C)CCCC=CCCC[C@@](C)(C(=O)N[C@@H](CCCC)C(=O)N[C@@H](C)C(=O)N[C@@H](CC(C)C)C(=O)N[C@@H](CC(=O)O)C(=O)N[C@@H](CCCNC(=N)N)C(=O)N[C@H](C(N)=O)[C@@H](C)CC)NC(=O)[C@H]([C@@H](C)CC)NC(=O)[C@H](C(C)C)NC(=O)[C@H](CC(C)C)NC1=O) [SP-31]	> 700
FIDEEVLLALVIAAALDRI (not fully specified; Ac-FIDEEVL-Nle-$-LVI-$-AALDRI-NH2) [SP-20]	> 700
Ac-FIDEEDL[Nle][S5]LVI[S5][Nle]ALDRI-NH2 (staple 9-13; SMILES CCCC[C@H](NC(=O)[C@H](CC(C)C)NC(=O)[C@H](CC(=O)O)NC(=O)[C@H](CCC(=O)O)NC(=O)[C@H](CCC(=O)O)NC(=O)[C@H](CC(=O)O)NC(=O)[C@@H](NC(=O)[C@H](Cc1ccccc1)NC(C)=O)[C@@H](C)CC)C(=O)N[C@@]1(C)CCCC=CCCC[C@@](C)(C(=O)N[C@@H](CCCC)C(=O)N[C@@H](C)C(=O)N[C@@H](CC(C)C)C(=O)N[C@@H](CC(=O)O)C(=O)N[C@@H](CCCNC(=N)N)C(=O)N[C@H](C(N)=O)[C@@H](C)CC)NC(=O)[C@H]([C@@H](C)CC)NC(=O)[C@H](C(C)C)NC(=O)[C@H](CC(C)C)NC1=O) [SP-32]	> 700
Ac-FIDEEVLA[S5]LVI[S5]AALDRI-NH2 (staple 9-13; SMILES CC[C@H](C)[C@H](NC(=O)[C@H](CCCNC(=N)N)NC(=O)[C@H](CC(=O)O)NC(=O)[C@H](CC(C)C)NC(=O)[C@H](C)NC(=O)[C@H](C)NC(=O)[C@]1(C)CCCC=CCCC[C@](C)(NC(=O)[C@H](C)NC(=O)[C@H](CC(C)C)NC(=O)[C@@H](NC(=O)[C@H](CCC(=O)O)NC(=O)[C@H](CCC(=O)O)NC(=O)[C@H](CC(=O)O)NC(=O)[C@@H](NC(=O)[C@H](Cc2ccccc2)NC(C)=O)[C@@H](C)CC)C(C)C)C(=O)N[C@@H](CC(C)C)C(=O)N[C@@H](C(C)C)C(=O)N[C@@H]([C@@H](C)CC)C(=O)N1)C(N)=O) [SP-26]	> 700
Ac-EIDEEVL[Nle][S5]LVI[S5][Nle]ALDRI-NH2 (staple 9-13; SMILES CCCC[C@H](NC(=O)[C@H](CC(C)C)NC(=O)[C@@H](NC(=O)[C@H](CCC(=O)O)NC(=O)[C@H](CCC(=O)O)NC(=O)[C@H](CC(=O)O)NC(=O)[C@@H](NC(=O)[C@H](CCC(=O)O)NC(C)=O)[C@@H](C)CC)C(C)C)C(=O)N[C@@]1(C)CCCC=CCCC[C@@](C)(C(=O)N[C@@H](CCCC)C(=O)N[C@@H](C)C(=O)N[C@@H](CC(C)C)C(=O)N[C@@H](CC(=O)O)C(=O)N[C@@H](CCCNC(=N)N)C(=O)N[C@H](C(N)=O)[C@@H](C)CC)NC(=O)[C@H]([C@@H](C)CC)NC(=O)[C@H](C(C)C)NC(=O)[C@H](CC(C)C)NC1=O) [SP-30]	> 700

Other lines, results leading:

IC50 [nM]	Binder
> 700	Ac-FIDEEVL[Nle][S5]LVE[S5][Nle]ALDRI-NH2 (staple 9-13; SMILES CCCC[C@H](NC(=O)[C@H](CC(C)C)NC(=O)[C@@H](NC(=O)[C@H](CCC(=O)O)NC(=O)[C@H](CCC(=O)O)NC(=O)[C@H](CC(=O)O)NC(=O)[C@@H](NC(=O)[C@H](Cc1ccccc1)NC(C)=O)[C@@H](C)CC)C(C)C)C(=O)N[C@@]1(C)CCCC=CCCC[C@@](C)(C(=O)N[C@@H](CCCC)C(=O)N[C@@H](C)C(=O)N[C@@H](CC(C)C)C(=O)N[C@@H](CC(=O)O)C(=O)N[C@@H](CCCNC(=N)N)C(=O)N[C@H](C(N)=O)[C@@H](C)CC)NC(=O)[C@H](CCC(=O)O)NC(=O)[C@H](C(C)C)NC(=O)[C@H](CC(C)C)NC1=O) [SP-37]
> 700	Ac-FIDEEVL[Nle][S5]LEI[S5][Nle]ALDRI-NH2 (staple 9-13; SMILES CCCC[C@H](NC(=O)[C@H](CC(C)C)NC(=O)[C@@H](NC(=O)[C@H](CCC(=O)O)NC(=O)[C@H](CCC(=O)O)NC(=O)[C@H](CC(=O)O)NC(=O)[C@@H](NC(=O)[C@H](Cc1ccccc1)NC(C)=O)[C@@H](C)CC)C(C)C)C(=O)N[C@@]1(C)CCCC=CCCC[C@@](C)(C(=O)N[C@@H](CCCC)C(=O)N[C@@H](C)C(=O)N[C@@H](CC(C)C)C(=O)N[C@@H](CC(=O)O)C(=O)N[C@@H](CCCNC(=N)N)C(=O)N[C@H](C(N)=O)[C@@H](C)CC)NC(=O)[C@H]([C@@H](C)CC)NC(=O)[C@H](CCC(=O)O)NC(=O)[C@H](CC(C)C)NC1=O) [SP-36]
> 700	Ac-FIDEEVL[Nle][S5]LVI[S5]EALDRI-NH2 (staple 9-13; SMILES CCCC[C@H](NC(=O)[C@H](CC(C)C)NC(=O)[C@@H](NC(=O)[C@H](CCC(=O)O)NC(=O)[C@H](CCC(=O)O)NC(=O)[C@H](CC(=O)O)NC(=O)[C@@H](NC(=O)[C@H](Cc1ccccc1)NC(C)=O)[C@@H](C)CC)C(C)C)C(=O)N[C@@]1(C)CCCC=CCCC[C@@](C)(C(=O)N[C@@H](CCC(=O)O)C(=O)N[C@@H](C)C(=O)N[C@@H](CC(C)C)C(=O)N[C@@H](CC(=O)O)C(=O)N[C@@H](CCCNC(=N)N)C(=O)N[C@H](C(N)=O)[C@@H](C)CC)NC(=O)[C@H]([C@@H](C)CC)NC(=O)[C@H](C(C)C)NC(=O)[C@H](CC(C)C)NC1=O) [SP-38]
> 700	Ac-FIDEEVL[Nle][S5]DVI[S5][Nle]ALDRI-NH2 (staple 9-13; SMILES CCCC[C@H](NC(=O)[C@H](CC(C)C)NC(=O)[C@@H](NC(=O)[C@H](CCC(=O)O)NC(=O)[C@H](CCC(=O)O)NC(=O)[C@H](CC(=O)O)NC(=O)[C@@H](NC(=O)[C@H](Cc1ccccc1)NC(C)=O)[C@@H](C)CC)C(C)C)C(=O)N[C@@]1(C)CCCC=CCCC[C@@](C)(C(=O)N[C@@H](CCCC)C(=O)N[C@@H](C)C(=O)N[C@@H](CC(C)C)C(=O)N[C@@H](CC(=O)O)C(=O)N[C@@H](CCCNC(=N)N)C(=O)N[C@H](C(N)=O)[C@@H](C)CC)NC(=O)[C@H]([C@@H](C)CC)NC(=O)[C@H](C(C)C)NC(=O)[C@H](CC(=O)O)NC1=O) [SP-35]
> 700	Ac-FIDEEVE[Nle][S5]LVI[S5][Nle]ALDRI-NH2 (staple 9-13; SMILES CCCC[C@H](NC(=O)[C@H](CCC(=O)O)NC(=O)[C@@H](NC(=O)[C@H](CCC(=O)O)NC(=O)[C@H](CCC(=O)O)NC(=O)[C@H](CC(=O)O)NC(=O)[C@@H](NC(=O)[C@H](Cc1ccccc1)NC(C)=O)[C@@H](C)CC)C(C)C)C(=O)N[C@@]1(C)CCCC=CCCC[C@@](C)(C(=O)N[C@@H](CCCC)C(=O)N[C@@H](C)C(=O)N[C@@H](CC(C)C)C(=O)N[C@@H](CC(=O)O)C(=O)N[C@@H](CCCNC(=N)N)C(=O)N[C@H](C(N)=O)[C@@H](C)CC)NC(=O)[C@H]([C@@H](C)CC)NC(=O)[C@H](C(C)C)NC(=O)[C@H](CC(C)C)NC1=O) [SP-33]
> 700	Ac-FIDEEVLD[S5]LVI[S5][Nle]ALDRI-NH2 (staple 9-13; SMILES CCCC[C@H](NC(=O)[C@]1(C)CCCC=CCCC[C@](C)(NC(=O)[C@H](CC(=O)O)NC(=O)[C@H](CC(C)C)NC(=O)[C@@H](NC(=O)[C@H](CCC(=O)O)NC(=O)[C@H](CCC(=O)O)NC(=O)[C@H](CC(=O)O)NC(=O)[C@@H](NC(=O)[C@H](Cc2ccccc2)NC(C)=O)[C@@H](C)CC)C(C)C)C(=O)N[C@@H](CC(C)C)C(=O)N[C@@H](C(C)C)C(=O)N[C@@H]([C@@H](C)CC)C(=O)N1)C(=O)N[C@@H](C)C(=O)N[C@@H](CC(C)C)C(=O)N[C@@H](CC(=O)O)C(=O)N[C@@H](CCCNC(=N)N)C(=O)N[C@H](C(N)=O)[C@@H](C)CC) [SP-34]
